Key:
[1] = cycloheximide chase, immunoblot, ± alkali; conditions: glycan lost; control: wild type Rim21
[2] = stepwise centrifugation P13/P100/S100, immunoblot; conditions: glycan lost; control: wild type Rim21-HA
[3] = GFP fluorescence microscopy with mRFP-Snc1(pm) marker; conditions: glycan lost; control: wild type Rim21-2GFP
[4] = anti-HA immunoblot of total lysate; conditions: glycan lost; control: wild type Rim21

B1: Rim21: N15Q (protein)
parent chain: MNLWRHSPEELAAYNSCHPMKLGSGVLIQLPLYDNSAVYAEDITFRSFCCERVPVYVSTVLRNSSPYRYLDEVINDWQKFIQVSDYVGGSAEYAIYAVILSITSNFVITVFLTVICCINISGRAYKRILQLLRIASLLASLNLTIFITKVLRRLEKEHNVYGVVRAHSIMHIFSDDMTFVVLDFLATLMFQFCQVGIVIRLFQRAQEKRIIFFIGVILTITANILWVIPPFANHTTKHRNDWQILRPFVYLFRIAIATSYASIVIYHIWQKKKLWFKFNQMGLLTLLTILVVLLLPGFFLADVSNLWISELGEVFNTTCYVTSTVITWEWLDRLNVLERKEEAQSILGRPIFEEEQQDYRFAKYALRVQNALTRRESQDASTDRHDTSSNSEVCDLQTISRYDPEDQISVGRSIDRMHFNDRGTYKDVALKKLGYARDKILYFTDQIVQKSVGHNNSSSSKNEKTKQRKAMVRKRLGLDKPGIYIYSTKDVVFNSDEDDDENAEDEDDDEYEVGSEGNNNSSATFTSDHIGHI
degradation_or_half_life [1]: increases
localisation_or_trafficking [2]: changes
localisation_or_trafficking [3]: no change
expression_or_secretion [4]: increases

From article PMC10739146
